Changes are numbered by the printed parent chain.
How the values were obtained:
[1] = molecular target: T1, human transferrin receptor (hTfR) fused to EGFP, on CHO cells (human, UniProt P02786 1-760); experiment: flow cytometry on CHO-hTfR-EGFP cells, 1 hr at 4 C, anti-6His + Alexa647 anti-mouse; ratio to background fluorescence
T1 construct: whole, on cells; also called human TfR; CHO-hTfR-EGFP; not shown: EGFP from pEGFP-C1 vector, fused to the N-terminal (intracellular) end of hTfR
Procedure: FIGS. 15A-15H: In vitro gene silencing activity of VHH-siGFPst1 bioconjugates. […] CHO-hTfR-EGFP cells were incubated 1 hr at 4° C. with various concentrations of the indicated compounds. Detection of VHHs was performed using a primary mouse anti-6His (1/1000) and an Alexa647-conjugated anti-mouse secondary antibody (1/400). Measurements of cell-surface signal associated to VHH were performed using flow cytometry. The results are expressed as the ratio of Alexa647-associated fluorescence intensity of test compounds to that of background fluorescence. […] The total fluorescence associated to the EGFP protein was then quantified using flow cytometry and rationalized to that of untreated (control) cells (set at 100%) *** p≤0.001. […] The total fluorescence associated with the EGFP protein was then quantified using flow cytometry and rationalized to that of untreated (control) cells (set at 100%). […] CHO-hTfR-EGFP cells were incubated with the indicated compounds at 1 μM during 120 hrs at 37° C. Data were processed and analyzed as described in (B). *** p≤0.001 vs. untreated cells. […] The total fluorescence associated with the EGFP protein was then quantified using flow cytometry and rationalized to that of untreated (control) cells (set at 100%).

[2] = molecular target: T1, human transferrin receptor (hTfR) fused …; experiment: cell-based or functional assay
[3] = molecular target: T2, human TfR ectodomain fused to a mouse IgG1 Fc fragment (human, UniProt P02786 89-760); experiment: SPR, kinetic
T2 construct: extracellular domain; ectodomain fused to the N-terminal end of the Fc, made in-house; not shown: mouse IgG1 Fc fragment
Procedure, shortened: (§1)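 TfR–mouse Fc fusions, produced in-house, captured on HC 1500M or CM5 chips either directly or via immobilized anti-mouse IgG. VHHs injected in single-cycle or multiple-cycle kinetic mode on Biacore T200.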

[4] = molecular target: T2, human TfR ectodomain fused to a mouse …; experiment: SPR, at equilibrium
Procedure, shortened: as §1

[5] = molecular target: T1, human transferrin receptor (hTfR) fused …; experiment: flow cytometry on CHO-hTfR-EGFP cells, 1 hr at 4 C, anti-6His + Alexa647 anti-mouse; apparent Kd, mean ± SEM of 3 experiments
Procedure: (§2) (A) CHO-hTfR-EGFP and CHO-mTfR-EGFP cells were incubated 1 hr at 4° C. with various concentrations of VHHs, detected with a mouse anti-6His (1/1000) and an Alexa647-conjugated anti-mouse secondary antibody (1/400). Measurements were performed using flow cytometry.
(§3) All experiments were performed in 96 well plates using 2×10⁵ cells/well, at 4° C. with shaking. CHO cell lines stably expressing the hTfR or the mTfR fused to EGFP or CHO WT cells were saturated with PBS/BSA 2% solution during 30 min to avoid non-specific binding, followed by incubation with purified VHHs at concentrations ranging from 50 μM to 5 μM for 1 hr. After one wash in PBS/BSA 2%, cells were incubated for 1 hr with an anti-6His tag antibody (mouse), washed twice with PBS/BSA 2%, and incubated for 45 min with an Alexa647-conjugated anti-mouse secondary antibody. After two last washes in PBS/BSA 2%, cells were fixed by incubation for 15 min with PBS/PFA 2%, washed once with PBS and finally resuspended in PBS and stored at 4° C. Fluorescence levels were assessed using an Attune NxT Flow Cytometer (Thermo Fisher Scientific). […] No labeling of the CHO WT control cells was detected with all the tested VHHs (not shown). The VHH K_{d app} were calculated using GraphPad Prism software (FIG. 11-B; 12-B).

[6] = molecular target: T3, mouse transferrin receptor (mTfR) fused to EGFP, on CHO cells (mouse, UniProt Q62351 1-763); experiment: flow cytometry on CHO-mTfR-EGFP cells, 1 hr at 4 C, anti-6His + Alexa647 anti-mouse; apparent Kd, mean ± SEM of 3 experiments
T3 construct: whole, on cells; also called mouse TfR; CHO-mTfR-EGFP; not shown: EGFP
Procedure: as §2, §3

[7] = molecular target: T3, mouse transferrin receptor (mTfR) fused …; experiment: apparent Kd, flow cytometry, CHO cells
Procedure: as §3

[8] = molecular target: T1, human transferrin receptor (hTfR) fused …; experiment: flow cytometry on CHO-hTfR-EGFP cells, 1 hr at 4 C, anti-6His + Alexa647 anti-mouse; apparent Kd, mean ± SEM of 3 experiments; remark: listed apart in the source
Procedure: (§4) (A) CHO-hTfR-EGFP and CHO-mTfR-EGFP cells were incubated 1 hr at 4° C. with various concentrations of VHHs, detected with a mouse anti-6His (1/1000) and an Alexa647-conjugated anti-mouse secondary antibody (1/400). Measurements were performed using flow cytometry. The ratio of fluorescence intensity for each point was normalized with the corresponding EGFP signal (receptor expression) and gave rise to the arbitrary unit. Data are presented as mean±SEM of 3 independent experiments. (B) Characteristics of VHHs: Molecular Weight (Da); Theoretical pI; Apparent Kd on human TfR (nM); Apparent Kd on mouse TfR (nM). Data are presented as mean±SEM of 3 independent experiments. NB: no binding, LB: low binding.
All experiments were performed in 96 well plates using 2×10⁵ cells/well, at 4° C. with shaking. CHO cell lines stably expressing the hTfR or the mTfR fused to EGFP or CHO WT cells were saturated with PBS/BSA 2% solution during 30 min to avoid non-specific binding, followed by incubation with purified VHHs at concentrations ranging from 50 μM to 5 μM for 1 hr. After one wash in PBS/BSA 2%, cells were incubated for 1 hr with an anti-6His tag antibody (mouse), washed twice with PBS/BSA 2%, and incubated for 45 min with an Alexa647-conjugated anti-mouse secondary antibody. […] Fluorescence levels were assessed using an Attune NxT Flow Cytometer (Thermo Fisher Scientific).

[9] = molecular target: T1, human transferrin receptor (hTfR) fused …; experiment: apparent Kd, flow cytometry, CHO cells
Procedure: as §3

[10] = molecular target: T3, mouse transferrin receptor (mTfR) fused …; experiment: flow cytometry on CHO-mTfR-EGFP cells, 1 hr at 4 C, Alexa647 anti-mouse; apparent Kd, mean ± SEM of 3 experiments
Procedure: as §4, with “FIGS. 13A-13B: Apparent Kd determination of 13C3-HC-VHH fusions on hTfR- and mTfR-expressing CHO cell lines. (A)” for “(A)”, “13C3 fusions and” for “VHHs,”, “with” for “with a mouse anti-6His (1/1000) and”, “anti-mouse” for “anti-mouse secondary”, “13C3 fusions:” for “VHHs:”, “(Da);” for “(Da); Theoretical pI;”
All experiments were performed in 96 well plates using 2×10⁵ cells/well, at 4° C. with shaking. CHO cell lines stably expressing the hTfR or the mTfR fused to EGFP or CHO WT cells were saturated with PBS/BSA 2% solution during 30 min to avoid non-specific binding, followed by incubation with purified VHHs at concentrations ranging from 50 μM to 5 μM for 1 hr. After one wash in PBS/BSA 2%, cells were incubated for 1 hr with an anti-6His tag antibody (mouse), washed twice with PBS/BSA 2%, and incubated for 45 min with an Alexa647-conjugated anti-mouse secondary antibody. After two last washes in PBS/BSA 2%, cells were fixed by incubation for 15 min with PBS/PFA 2%, washed once with PBS and finally resuspended in PBS and stored at 4° C. Fluorescence levels were assessed using an Attune NxT Flow Cytometer (Thermo Fisher Scientific).

T2 sequence (P02786 89-760): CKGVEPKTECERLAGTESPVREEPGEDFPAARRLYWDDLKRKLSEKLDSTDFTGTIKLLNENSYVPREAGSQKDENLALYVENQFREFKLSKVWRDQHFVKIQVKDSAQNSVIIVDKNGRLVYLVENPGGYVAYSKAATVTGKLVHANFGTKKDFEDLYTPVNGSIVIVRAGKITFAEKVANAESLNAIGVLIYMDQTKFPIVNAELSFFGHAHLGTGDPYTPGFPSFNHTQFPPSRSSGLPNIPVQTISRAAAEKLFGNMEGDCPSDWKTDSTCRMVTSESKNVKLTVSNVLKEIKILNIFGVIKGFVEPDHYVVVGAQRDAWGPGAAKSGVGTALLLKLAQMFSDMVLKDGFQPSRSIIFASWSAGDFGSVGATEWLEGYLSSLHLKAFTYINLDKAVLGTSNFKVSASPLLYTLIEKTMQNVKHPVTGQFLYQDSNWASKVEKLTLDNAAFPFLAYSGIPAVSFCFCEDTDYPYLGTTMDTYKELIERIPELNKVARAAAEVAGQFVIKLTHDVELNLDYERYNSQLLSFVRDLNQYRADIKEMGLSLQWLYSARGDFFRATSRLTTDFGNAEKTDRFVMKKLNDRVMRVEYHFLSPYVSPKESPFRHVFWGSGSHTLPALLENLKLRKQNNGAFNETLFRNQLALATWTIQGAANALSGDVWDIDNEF
T1 sequence (P02786 whole entry, the tested form may be a part): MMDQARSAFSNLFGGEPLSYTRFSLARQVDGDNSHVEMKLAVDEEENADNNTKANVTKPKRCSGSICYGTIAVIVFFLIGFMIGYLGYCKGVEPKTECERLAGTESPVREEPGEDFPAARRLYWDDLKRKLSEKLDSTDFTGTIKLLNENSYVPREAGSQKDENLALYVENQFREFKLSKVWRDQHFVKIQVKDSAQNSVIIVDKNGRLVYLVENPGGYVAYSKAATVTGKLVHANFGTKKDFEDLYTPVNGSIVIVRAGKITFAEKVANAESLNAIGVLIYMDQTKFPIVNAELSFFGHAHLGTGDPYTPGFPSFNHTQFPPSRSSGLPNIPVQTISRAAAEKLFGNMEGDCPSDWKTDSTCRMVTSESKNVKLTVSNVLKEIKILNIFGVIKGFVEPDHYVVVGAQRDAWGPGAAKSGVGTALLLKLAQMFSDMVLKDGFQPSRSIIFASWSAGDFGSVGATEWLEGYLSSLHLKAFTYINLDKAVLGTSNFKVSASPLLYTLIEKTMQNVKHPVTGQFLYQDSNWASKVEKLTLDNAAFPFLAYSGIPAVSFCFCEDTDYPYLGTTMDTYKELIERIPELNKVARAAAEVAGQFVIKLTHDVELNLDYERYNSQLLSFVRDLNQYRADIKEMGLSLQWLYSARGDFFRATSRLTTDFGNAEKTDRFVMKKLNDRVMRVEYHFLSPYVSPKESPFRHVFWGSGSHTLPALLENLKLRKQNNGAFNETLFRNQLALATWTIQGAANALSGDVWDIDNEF
T3 sequence (Q62351 whole entry, the tested form may be a part): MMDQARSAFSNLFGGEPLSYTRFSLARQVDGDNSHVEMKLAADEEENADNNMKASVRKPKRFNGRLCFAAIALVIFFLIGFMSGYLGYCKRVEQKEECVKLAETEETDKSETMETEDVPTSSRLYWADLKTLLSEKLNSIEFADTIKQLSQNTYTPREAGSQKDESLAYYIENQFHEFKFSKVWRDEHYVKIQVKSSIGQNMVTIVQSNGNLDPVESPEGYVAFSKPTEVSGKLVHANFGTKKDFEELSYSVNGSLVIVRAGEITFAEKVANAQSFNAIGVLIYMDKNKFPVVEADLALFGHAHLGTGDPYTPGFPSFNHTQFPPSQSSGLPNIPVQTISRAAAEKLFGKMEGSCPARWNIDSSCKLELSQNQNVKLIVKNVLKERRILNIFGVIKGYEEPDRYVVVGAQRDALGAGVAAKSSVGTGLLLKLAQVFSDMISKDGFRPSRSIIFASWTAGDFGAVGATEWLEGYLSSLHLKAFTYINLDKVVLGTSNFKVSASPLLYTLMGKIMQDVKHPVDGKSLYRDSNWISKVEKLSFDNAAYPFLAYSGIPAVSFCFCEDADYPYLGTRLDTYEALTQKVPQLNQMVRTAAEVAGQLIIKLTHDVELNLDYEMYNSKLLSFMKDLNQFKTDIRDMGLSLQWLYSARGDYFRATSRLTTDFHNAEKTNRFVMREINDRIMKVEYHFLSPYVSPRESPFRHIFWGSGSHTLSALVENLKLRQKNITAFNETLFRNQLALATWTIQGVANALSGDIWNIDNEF

B1: VHH A-siGFPst1 bioconjugate (VHH)
VHH: EVQLVESGGGVVQPGGSLKLSCVASGTDFSINFIRWYRQAPGKQREFVAGFTATGNTNYADSMKGRFTISRDNTKNAVYLQIDSLKPEDTAVYYCYMLDKWGQGTQVTVSS
modifications: siGFPst1 siRNA linked by azide/DBCO click chemistry to the Gln of the C-terminal Q-tag
notes: not shown: C-terminal tag with His tag and Q-tag (Q-tagged VHH)
Question: How did the “EC50 (read off the curve)” value [1] turn out when B1 was run?
Answer: The value was ~3 nM.

Question: And the “IC50 of reduction of GFP protein levels, 6-hour pulse and chase to 120 hrs” value [2]?
Answer: The value was 1.24 nM.

Question: What about the “IC50 of reduction of GFP protein levels, free uptake 120 hrs” value [2] of the same binder?
Answer: The value was 2.73 nM.

B2: VHH A19 (C5^V19) (VHH)
VHH: B1 VHH with D99E
Question: Which Kd [3] does the source give for B2 here?
Answer: The Kd was 22.3 nM.

Question: What about the koff [3] of the same binder?
Answer: The koff was 0.0097 s⁻¹.

Question: And the kon [3]?
Answer: Its kon is 426000 M⁻¹ s⁻¹.

Question: And the Kd [4]?
Answer: The Kd was 7.13 nM.

Question: What about the Kd [5] of the same binder?
Answer: The Kd was 9.2 nM.

Question: What about the Kd [6] of the same binder?
Answer: The Kd was 210 nM.

B3: VHH A5 (C5^V5) (VHH)
VHH: B1 VHH with Y96A
Question: For B3, which Kd [7] is on record?
Answer: Its Kd is 604 nM.

Question: What about the Kd [3] of the same binder?
Answer: The Kd was 154 nM.

Question: And the koff [3]?
Answer: Its koff is 0.0509 s⁻¹.

Question: What about the kon [3] of the same binder?
Answer: Its kon is 332000 M⁻¹ s⁻¹.

Question: And the Kd [4]?
Answer: Its Kd is 180 nM.

Question: And the Kd [8]?
Answer: The Kd was 25 nM.

B4: VHH A17 (C5^V17) (VHH)
VHH: B1 VHH with L98I
Question: Which Kd [9] does the source give for B4 here?
Answer: The Kd was 3 to 4 nM.

Question: And the Kd [5]?
Answer: The Kd was 5.3 nM.

Question: What about the Kd [6] of the same binder?
Answer: Its Kd is 208 nM.

B5: 13C3-LC-VHH A (antibody)
light: DVVMTQTPLSLPVSLGDQASISCRSGQSLVHSNGNTYLHWYLQKPGQSPKLLIYTVSNRFSGVPDRFSGSGSGSDFTLKISRVEAEDLGVYFCSQNTFVPWTFGGGTKLEIKRADAAPTVSIFPPSSEQLTSGGASVVCFLNNFYPKDINVKWKIDGSERQNGVLNSWTDQDSKDSTYSMSSTLTLTKDEYERHNSYTCEATHKTSTSPIVKSFNRNECSGSGGGGGMAEVQLVESGGGVVQPGGSLKLSCVASGTDFSINFIRWYRQAPGKQREFVAGFTATGNTNYADSMKGRFTISRDNTKNAVYLQIDSLKPEDTAVYYCYMLDKWGQGTQVTVSSAAA
heavy: QVQLQQSGPELVRPGVSVKISCKGSGYTFTDYAMHWVKQSHAKSLEWIGVISTKYGKTNYNQKFKGKATMTVDKSSSTAYMELARLTSEDSAIYYCARGDDGYSWGQGTSVTVSSAKTTPPSVYPLAPGSAAQTNSMVTLGCLVKGYFPEPVTVTWNSGSLSSGVHTFPAVLQSDLYTLSSSVTVPSSTWPSETVTCNVAHPASSTKVDKKIVPRDCGCKPCICTVPEVSSVFIFPPKPKDVLTITLTPKVTCVVVDISKDDPEVQFSWFVDDVEVHTAQTQPREEQFNSTFRSVSELPIMHQDWLNGKEFKCRVNSAAFPAPIEKTISKTKGRPKAPQVYTIPPPKEQMAKDKVSLTCMITDFFPEDITVEWQWNGQPAENYKNTQPIMDTDGSYFVYSKLNVQKSNWEAGNTFTCSVLHEGLHNHHTEKSLSHSPG
Question: How did the Kd [7] turn out when B5 was run?
Answer: Its Kd is 106 nM.

B6: 13C3-HC-VHH A (antibody, mouse IgG1)
heavy: QVQLQQSGPELVRPGVSVKISCKGSGYTFTDYAMHWVKQSHAKSLEWIGVISTKYGKTNYNQKFKGKATMTVDKSSSTAYMELARLTSEDSAIYYCARGDDGYSWGQGTSVTVSSAKTTPPSVYPLAPGSAAQTNSMVTLGCLVKGYFPEPVTVTWNSGSLSSGVHTFPAVLQSDLYTLSSSVTVPSSTWPSETVTCNVAHPASSTKVDKKIVPRDCGCKPCICTVPEVSSVFIFPPKPKDVLTITLTPKVTCVVVDISKDDPEVQFSWFVDDVEVHTAQTQPREEQFNSTFRSVSELPIMHQDWLNGKEFKCRVNSAAFPAPIEKTISKTKGRPKAPQVYTIPPPKEQMAKDKVSLTCMITDFFPEDITVEWQWNGQPAENYKNTQPIMDTDGSYFVYSKLNVQKSNWEAGNTFTCSVLHEGLHNHHTEKSLSHSPGGGGGMAEVQLVESGGGVVQPGGSLKLSCVASGTDFSINFIRWYRQAPGKQREFVAGFTATGNTNYADSMKGRFTISRDNTKNAVYLQIDSLKPEDTAVYYCYMLDKWGQGTQVTVSSAAA
light: DVVMTQTPLSLPVSLGDQASISCRSGQSLVHSNGNTYLHWYLQKPGQSPKLLIYTVSNRFSGVPDRFSGSGSGSDFTLKISRVEAEDLGVYFCSQNTFVPWTFGGGTKLEIKRADAAPTVSIFPPSSEQLTSGGASVVCFLNNFYPKDINVKWKIDGSERQNGVLNSWTDQDSKDSTYSMSSTLTLTKDEYERHNSYTCEATHKTSTSPIVKSFNRNEC
notes: mouse IgG1 13C3 (anti beta-amyloid protofibril) with VHH A at the C-ter of each heavy chain
Question: How did the Kd [10] turn out when B6 was run?
Answer: The Kd was 11.3 nM.

B7: 13C3-HC-VHH A6 (antibody)
heavy: B6 heavy with M541A
light: B6 light
Question: Which Kd [10] does the source give for B7 here?
Answer: The Kd was 23 nM.

B8: 13C3-HC-VHH A8 (antibody)
heavy: B6 heavy with D543A
light: B6 light
Question: How did the Kd [7] turn out when B8 was run?
Answer: Its Kd is 315 nM.

From patent US20230414780A1 (VECT HORUS, published 2023)
